Measured values published in the RNAGym collection of RNA variant scans (doi:10.7554/elife.90254).

B1: OR4K15 (parent)
chain: GUUAACGGUCAUAGGCCAUGGAAACUAGGAGCACCAUUUCGCUGCCAGUGAAGAAAUGAACAAAGAAAAUCUGGGCCAGGCAGGCAUCAAAAGAAAUAGUCUUGCGCUCAACCAGAAAGUCUGUAAUCAUUUUAAGGGUA

Variants of: B1
Experiment: self-cleavage, relative activity (ratio to wild type); higher = more cleavage; in vitro, sequencing; the parent is a self-cleaving ribozyme

Variant | self-cleavage
A59U A94G | 1.02
A60G C128G | 0.87
A60C U120C | 0.98
A59U A90C | 1.63
A62U U120A | 2.24
A62U U120C | 1
A60U A91G | 1.34
A62U G99A | 0.62
A62U A111G | 0.02
A63G A125C | 1.23
A60G U97C | 1.05
A59U A117C | 0.63
A63G U87G | 1.35
A62G A63U | 1.61
A59U U132A | 1.61
A63G A91U | 2.36
A62G A117G | 1.43
A62G G83A | 0.99
A63G U131A | 0.45
A63G U131C | 1.2
A63G A89G | 1.89
A63G A89U | 1.13
A62G A95G | 2.2
A62G A140G | 1.36

Variant | self-cleavage
C61U A64G | 1.63
A59U U100A | 0.74
A59U U100G | 2.13
A59U U100C | 2.73
A63C U131C | 1.99
A60G A125G | 0.69
A60U U130C | 1.22
C61U U72A | 0.19
A62G A114G | 0.44
C61U A82G | 0.28
A60G U124C | 0.63
A63G G99A | 0.76
A59U A92G | 0.79
A62G A64G | 0.94
A62U U103G | 0.07
A62U U103C | 1.23
A60U G136A | 1.51
A63G A117G | 1.69
A63C G79A | 0.09
A60G A68G | 1.31
A60G A68U | 1.38
A63U A98G | 0.8
A59U C109U | 0.43
A60G A110U | 1.3

Variant | self-cleavage
A60G A110G | 0.13
A63C G74U | 0.15
A59U G79A | 0.14
A59U A114C | 0.03
A62G U122A | 1.07
A63G A110G | 0.15
A63G A110C | 0.38
A63G A110U | 1.88
A60G C101A | 0.23
A60G A135G | 1.71
A63G A90G | 1.6
A60G C105U | 0.28
A60C U122C | 1.62
A62G C85U | 0.63
A62U U102A | 0.57
A62G U127A | 1.79
A60U A69G | 1.51
A62U U132C | 1.48
A63U A118G | 1.71
A63U A140U | 1.52
A62C U87C | 1.51
A62G A126G | 2.05
A62G A126U | 1.6
A62G A126C | 0.62

Variant | self-cleavage
A60G A111G | 0.03
A60G A111U | 0.11
A60G A86U | 1.44
A60G U70A | 1.3
C61U A63G | 2.17
A63U A90U | 1.93
A62C U130C | 0.71
A60G A69G | 0.19
A60U U103C | 0.16
A62U A95G | 2.47
A63G C101A | 0.32
A60C G65A | 0.54
A63G A111U | 0.18
A63U A94U | 1.96
A62G A135G | 2.19
C61G A62U | 1.87
A60G U103C | 0.78
A60G U103G | 0.05
A60G A98U | 2.21
A60G A90C | 0.79
A63G U102C | 1.43
A63G U102G | 0.54
A63G U102A | 1.39
A60U G79U | 0.08

Variant | self-cleavage
A60G A96G | 1.47
A60G A96U | 1.96
A60G C71U | 0.1
A60G A114U | 0.06
A62U A89U | 1.93
A62U A89G | 1.95
C61U U132C | 1.89
A60U U87C | 1.43
A60U U87A | 1.61
A60G G84U | 0.43
A62G A116U | 0.35
A63G A66U | 1.49
A63G U139A | 1.74
A62G U120A | 1.1
A62C A86G | 1.15
A60G U72A | 0.17
A60G U72C | 0.17
A62G C128U | 1.13
A62G A118U | 0.73
A62G A118G | 1.01
C61U U133C | 1.21
A60G A66G | 1.15
A62C A78U | 0.46
A60G C112U | 0.02

Variant | self-cleavage
A62C U97A | 1.86
A60G A78G | 0.23
A63G C85U | 1.21
A60G A116U | 0.31
A60G A116G | 0.5
A59U U131C | 1.25
A63G U130G | 1.92
A63G U130C | 1.13
A60C U100A | 0.68
A59U A110G | 0.08
A60G A94U | 2.32
A60G A129G | 0.49
A60U G83A | 1.65
A63G A135U | 0.04
A63G A135G | 1.35
A63G U70A | 1.47
A63G U70G | 1.56
A63G U70C | 1.08
A62G U108C | 0.02
A62U A110U | 1.27
A60G A140G | 1.21
A63C G83U | 0.83
A63G A86U | 2.04
A62U G73U | 0.17

Variant | self-cleavage
A63U A96G | 1.74
A62G U132A | 1.9
A60G A62G | 1
A60G A62U | 1.51
C61U G136A | 2.1
A60G A67C | 0.77
A60G A67U | 2.01
C61U A117G | 1.54
A63G A116C | 0.13
A63G A116U | 0.57
A60G U127G | 1.52
A60G U127C | 0.93
A60G U127A | 1.87
C61U C101U | 0.54
A62U A78G | 0.28
A62U A78U | 0.33
A60U U108C | 0.01
A60U A95G | 1.6
A59U U127G | 1.12
A59U U127C | 0.28
A62G G74A | 0.24
A62G G106A | 0.01
A62G U131C | 1.29
A62G C112G | 0

Variant | self-cleavage
A60C A66G | 0.72
A59U A91G | 0.79
A62G A94G | 1.52
A59U U102C | 1.23
A60C U72C | 0.16
A59U U124C | 0.69
A59U U124A | 0.51
A63G A140G | 2.02
A63G A140U | 1.52
A62G A96G | 1.53
A62G U139C | 1.62
A62G U139A | 1.84
A62G U87C | 0.88
A62G U87A | 1.71
A60G C81U | 0.21
A62U U97C | 0.96
A63U A64G | 0.94
A60G G136C | 0.72
A60G A134G | 0.69
A59U U108C | 0.02
A63G A94U | 0.98
A60U A89U | 1.68
A60U A89G | 1.73
A63G A96G | 1.4

Variant | self-cleavage
A59U A134G | 1.02
A60U A62G | 1.72
A60G A64U | 1.46
A60U U102C | 2.8
A63U A82G | 0.36
A60U A64G | 0.65
A63C A126G | 0.99
A63C A126U | 1.62
A62G A66U | 1.78
A62G A66G | 1.48
A62U G74A | 0.41
A60G U131C | 0.15
A62G G136U | 1.1
A62G G136A | 2.2
A62U G84C | 0.25
A63G A69G | 1.04
A62G A129U | 0.89
A62G A129G | 1.09
A60U A96G | 1.78
A62C A116U | 0.63
A62C A116G | 0.78
A62G U100C | 2.17
A62G U100A | 1.12
A62G A69U | 1.87

Variant | self-cleavage
A62G A69G | 0.68
A60U A117G | 1.84
A60C A82G | 0.28
A63G G106U | 0.02
A60G U139A | 1.12
A60G U139C | 0.47
A59U A86U | 1.92
A59U A86G | 0.7
A60G A91G | 0.99
A60G A91U | 1.31
A63G C109U | 0.69
A63G C109A | 0.55
A60U U70C | 1.72
C61U A116G | 0.39
A60U A116G | 1.37
A62U U100C | 2.34
A62G A68G | 1.12
A59U A116U | 0.2
A63G C107U | 0.01
A63G C107G | 0.01
A62C A63G | 1.55
C61U A98G | 0.45
A63G A92U | 1.35
A60G A63C | 1.48

Variant | self-cleavage
A60G A63G | 1.35
A62U A118G | 1.9
A62U U139C | 1.82
A62U U139A | 1.78
A60G U87C | 0.93
A62G A110U | 2.32
A62G A110G | 0.16
A63G U132C | 1.67
A62C A140U | 1.7
A62C A96G | 2.59
A62U A91G | 0.94
C61U G106U | 0.04
A63G U124A | 0.72
A63U A134G | 0.32
A60G U132A | 1.17
A62U G136A | 1.59
A60G G123A | 1.05
A62C G83A | 2.18
A60G A118U | 0.79
A60G A118C | 0.74
A60G A118G | 1.07
A63U A95G | 1.78
A60C U108A | 0.04
A60U A134G | 1.84

Variant | self-cleavage
A60G A92G | 0.87
A62G A92U | 1.01
A60U A94U | 1.82
A63G A134G | 1.47
A63G U127G | 2.41
A60G G115A | 0.04
C61U G115A | 0.08
A60G G79C | 0.07
A60U A67G | 2.09
A60G U100C | 1.35
A62C A135G | 1.24
A62G A91U | 1.61
A59U G137A | 2.05
A59U G137U | 2.15
A62U G104A | 0.04
A62G U72G | 0.22
A62G U72A | 0.18
A62G A86U | 2.08
A59U A95G | 1.85
A63U U72C | 0.41
A63G A118C | 1.42
A62G U102A | 1.14
C61G A110G | 0.41
A62U | 1.53

Variant | self-cleavage
A62C | 1.64
A62G | 1.23
A63G U97C | 2.55
A63G U72A | 0.33
A63G U72C | 0.27
A63G U103G | 0.01
A60U A118U | 0.99
C61U C85U | 0.95
A59U A89U | 2.6
A62G G115U | 0.07
A60C A117U | 0.56
A62U U131C | 1.2
A62G A78G | 0.27
A63C A140G | 1.96
A60G U130G | 1.18
A60G U130C | 1.07
A59U A96U | 0.97
A62G A134G | 1.72
A63G | 1.41
A63C | 1.81
A63U | 0.82
A59U U103G | 0.04
A60U A86G | 0.74
A60C A69G | 2

Variant | self-cleavage
A60C A111G | 0
A63G A126U | 0.57
A63G A126G | 1.13
C61U A94G | 1.63
A62U U108A | 0.02
A62G C105U | 0.14
A63G A64U | 1.62
A63G A64G | 1.37
A62C A92G | 1.58
A62G A90U | 0.76
A62G A90G | 0.54
A60C A63G | 2.15
A60G U102A | 0.99
A62C A134G | 1.15
C61U A78U | 0.43
A59U U130C | 1.05
A63G A98U | 2.55
A60G A126G | 0.27
A60G G104A | 0.02
A60U G104A | 0.03
A63U A86G | 2.75
A60U A98G | 0.39
